Legend:
[1] = target: either human or rabbit apoB; assay: densitometry of non-reducing anti-apo(a) immunoblots, apoB/apo(a) transgenic rabbit plasma (n=3)
[2] = target: rabbit apolipoprotein B-100 (rabbit) (UniProt P17165); assay: densitometry of non-reducing anti-apo(a) immunoblots, apo(a) transgenic rabbit plasma (n=3)
Chain of UniProt P17165 (P17165 whole entry): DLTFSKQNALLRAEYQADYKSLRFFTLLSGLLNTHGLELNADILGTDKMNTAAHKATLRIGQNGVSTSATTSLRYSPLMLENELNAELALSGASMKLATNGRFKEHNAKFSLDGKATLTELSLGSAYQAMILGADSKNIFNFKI

Row | Substance | percent of apo(a) covalently bound [1] [%] | percent of apo(a) migrating as free apo(a) [1] [%] | percent of apo(a) bound [2] [%] | percent of apo(a) free [2] [%]
1 | human apolipoprotein(a) (from UniProt P08519 20-2040) | 80 | 20 | – | –
2 | human apolipoprotein(a), P08519 20-2040 | – | – | 20 | 80

— patent US6512161
